Test: soluble on expression in E. coli; label from the status in PepcDB or PDB records

Question: Which “soluble on expression in E. coli” value does the source give for “MGSDKIHHHHHHMQITLNIEHIRADTPLPPLFRVRQRWQTSPIADVAAVVYAELDKIGLAGHIQPGMRIAVTAGSRGISNIVTITAAAVAWLRAHGAEPFIVPAMGSHGGATAEGQVALLASLGITEQSVGCPIRATMDVVELGRIADGTPVYMDRFAAEADGVLVINRIKTHTSFKAPIESGLAKMCAVGLGKRQGAEIVHRTAVYGLKEQLVPMARMVVERGRVLAGLAILEDARDQTAAIVALPPAEIGGAGEAELLLRSKEMMARLPFDRLDVLVVDRIGKNISGTGMDTNVIGRLPIPGEPPPDRPVINVIVVLDLTPETHGNANGIGLADITTARLAAKIDFHATYVNVLTAGLVGLCKGGLPITLPTERDAVAMAIKTCGQPDLAAVRLVRIPDTLHLEELLVSEALLPEVTAHPNLELLGPAEWVLDCVEG” here?
Answer: The value was “not soluble”.

Question: With “MGSDKIHHHHHHMQKYTSQKLDRLNWDDLRYFLEVARTQRASAAGKRLGVDHTTVARRVRELEAALGVILFDKSRADGFTLTSDGHRLLRHADAVETAVQSASEQFRGATQGLSGHVRIGSTEGFGCFFLSPQIARFTAAHRDVSIDILPVPHFVSLSKREADMAITLERPERGKYVFTRLCDYRLRLYGTRDYFLRHEPVRCIADLRHHAFIDYVADLAFSHELLYLNRTIPDVSSSLCSTSVIAQYFAALQGNALAILPCFMAAPNPMLVSILPDEVVVTRQFWLSSREDLRKLRRITVLWDYLRAATDANRPLLLGDSAELKYVQP” as the sequence, how does the “soluble on expression in E. coli” value read?
Answer: The value was “not soluble”.

Question: Which “soluble on expression in E. coli” value does the source give for “MGSDKIHHHHHHMQPEIRKIVTYDEEVLIEGFRKADAPWRMFAIACVVRNPWAGRFVEDLKPEIMAYGPVLGELMTERMITLAGSGDAIEAYGKAAIVGVDGEVEHASGLIHTLRFGNFFREAVGANSYLAFTNTRGPANAPIMVPLMDKNDAGRRSHYLTIQFAIPDAPRADEIVVLLGAATSGRPHHRIGDRYQDLKDLGHDLDNPAAV” here?
Answer: Its value is “not soluble”.

Question: Which “soluble on expression in E. coli” value does the source give for “MGSDKIHHHHHHMQPPLTDKQFKHTIDYDSRLLPYKYYHTCVMDGIPDILFHWHNEFEINYVYGGTARYHIDYDYFNSQAGDIILIRPNAAHSIHPIEQRGHETDTLLFHLDMLGASQLDHTSMLYLQPLQTDVFKCILRIQPQDPGYAEIRQCLLTIFELVRHQPPYFELPLKSRLFDFFYLLYRYRYIVRKNTDDMYRKNEKLRLLIEHIQQHYAENLTIEQLAEQMGYTKTHFMTIFKQQTGTSCMEFIIQVRLRAATELLTNTLKPVLEIATEVGFNNLSNFNRQFKQYYHTTPSSYRKQLRKNRTYTNFDK” here?
Answer: Its value is “not soluble”.

Question: For “MGSDKIHHHHHHMQPSATDSTISAGTQPHIVYSERASAPGPLLVFIPGTGGKTPKTAETEQAFIGTALAHGYRVIILSYIDTPAIAQVCTKRVLANDPACAEQVRQKRAFGDDTTARIDDAPQDAIVHRLNALIRYLAAHNAGDHWEQYLAGERLNWRAIVLSGQSQGGGMAAYIAKRIAIRGVIDFSGGWDMRSDSDIASWYSAPSATPPERWYGTYHADERFASAIAASYRAMNIPVSHQFSLSEPVRHPEGKNPGHGEGASNPVYRGIWETMLTGLE”, which “soluble on expression in E. coli” value is on record?
Answer: Its value is “not soluble”.

Question: Which “soluble on expression in E. coli” value does the source give for “MGSDKIHHHHHHMQQAQLPLEAILYQYDLYPEAVEDHGENVKKLVTKHGLFALKKTQMTRSQADWFVYCMRKLDRLGYRKVVPLVPTKFGEYTLTDRDTSFYVMPWIESIPYNARESQEEKLADQLGVIHRLTVKTQPFSKEQLEASYNELRDRWDSRWLTMNRFADQAERKTYMSPYELTLLTHFSFLEHMAHTAKESLEAWYETCLEKEKYRSVLCHGRLSRAHAFFNERHEPLLFNFERAALDTPARDLASFFRHSFPHALWSEEEGHRWLYRYEQHLPLLEEEKRLLHAYLSFPDPVIYGIEAYQQQSGPPSEVKHVKRLEKRLLNLRRVERFSKSLLPTPAINESGLS” here?
Answer: Its value is “not soluble”.

Question: With “MGSDKIHHHHHHMQQLQAAVALHKQGELDKAEAIYQQVLAVDVNNFYALNFCGSIKREKKRFDEGIDFLSRAISLQPDNPDAIYNLGNVFKDSERWDEAISCYEKTLGLRAESPEALNNLGICLKEVERFEYSEIVLRRVVSMQPGLAGAWLNLGNTFKEQEKYSEAKASYRNAIDLKPDFEAAYFALGLVLKEEGKVEEAIASYRKAIELKPDFADVYFALGLVLKEAGEFEAARQIVSALSTVNAMEDSTLLSFSLCDLVFDWYHRRVLNLLEDVEMTALSGASAPFSAYETVRKIQPQLFPPLFLKGEGDRANEKHLYRNGYLVEDEILPEDLCAEFVNGFEGANAMSAALIRAVSEKGVLGSVLGKIFKHTDFPHLVWNCIYFAKGPDDQAISDAWHYDNHYNVWTPKLMIYLNSQREEGGATEFVDTSLSRRLSEETDYMGFIWQRESYADRVKGSVKDLGLDPATLDPDHYTFSPDHAGSGVWFCPSRVLHRGVSPKKGVRHVLSFSLTPLPHDCGWSIDQCVDKSIEILQDKINKGMQKSDVNPYWIPAEAGYA” as the sequence, how does the “soluble on expression in E. coli” value read?
Answer: The value was “not soluble”.

Question: For “MGSDKIHHHHHHMQQNDKKLFVLDTNVLLHEPLAIYSFKEHDVIIPMTVLEELDSIKDRKRDVSRDARVAIRALEDILGGPTTPEQILKGVALPTREEHSQVSGHLSIFPDHQVEFIIGSLPGDNNDNRIINTALHLQKIHFPRTVVLVTKDINMRLKAKGAGIERVEDYRSDQLIDDVRFLAKGFYQFSGDFWQNVDKVSTERRGLHTVHQVPLEHLGNENFYLNQYLIDDSSDFCGRVVSKTDKHLEMIDRGRDRLLHHEAWGINPKNIYQGMALDALLDPDIELIILTGPAGCGKTLLAMAAALELVVERKLYDKIIVTRNTPEIAESIGFLPGSEEEKMTPWLAAITDTLEVLHKNDVNPAGSVNYIMEKANIQFKSINFMRGRSIQNSVVILDECQNLTASQIKTMITRMGEGTKLICSGNLAQIDSTYLTAVTSGLTYMVERFKDFEGSANIYLNGVVRSRLAEFAEEHL”, which “soluble on expression in E. coli” value is on record?
Answer: Its value is “not soluble”.

Question: With “MGSDKIHHHHHHMQRDDDSFMLVPSKGEDYMAGWHLDTKMAQDIVARTMRIIDTNINVMDARGRIIGSGDRERIGELHEGALLVLSQGRVVDIDDAVARHLHGVRQGINLPLRLEGEIVGVIGLTGEPESLRKYGELVCMTAEMMLEQSRLMHLLAQDSRLREELVMNLIQAEEHTPALNEWAQRLGIDLNQPRVVAMIEVDSGQLGVDSAMAELQQLQNALTTPDRNNLVAIVSLTEMVVLKPALNSFGRWDADDHVRRVEQLIARMKENGQLRFRVALGNFFTGPGSIARSYRTARTTMMVGKQRMPESRSYFYQDLMLPVLLDSLRGGWQANELARPLARLKAMDNNGLLRRTLQAWFRHNVQPLATSKALFIHRNTLEYRLNRISELTGLDLGSFDDRLLLYIALQLDEQR” as the sequence, how does the “soluble on expression in E. coli” value read?
Answer: Its value is “not soluble”.

Question: With “MGSDKIHHHHHHMQRIAMISEHASPLASVGSVDSGGQNVYVAHLARQLGKSGYLVDVFTRRDKALLPDVVAFAPNVRVVHVPAGPAVFVPKEQLLSFMPAFGDSMVDFMRRDAIGYDVLHANFFMSGVAAMRAREVLDIPLVMTFHALGKVRRLHQGSADGFPDNRFEIEDELVRHADRVVAECPQDLDDLATLYGGDPERIDIVPCGFDEEEFAPLDRAEARRALDWDADVFTVLQLGRLVPRKGIDNVIRAIGHLRRDFRIPARLYVVGGNAEQPSVEATPEIGRLQGVADEAGVSDCVTFVGRRRRSQLCHFYSASDVFVTTPWYEPFGITPVEAMACGVPVVGADVGGIRSTVVDGETGYLVPPHAPEALADRLARLAGDRALARRMGAAGLQRAHANYTWMSVARTMEQVYARVMRAERPARRVAA” as the sequence, how does the “soluble on expression in E. coli” value read?
Answer: Its value is “not soluble”.

Question: With “MGSDKIHHHHHHMRAIAIVLARSSSKRIKNKNIIDFFNKPMLAYPIEVALNSKLFEKVFISSDSMEYVNLAKNYGASFLNLRPKILADDRATTLEVMAYHMEELELKDEDIACCLYGASALLQEKHLKNAFETLNKNQNTDYVFTCSPFSASPYRSFSLENGVQMAFKEHSNTRTQDLKTLYHDAGLLYMGKAQAFKEMRPIFSQNSIALELSPLEVQDIAHFRRFRISQAQIQPFEKRMPVKILCDCFLTSGLGHVRRCEKILSFIEKLGVEASLYLHKQNNISAFLEGVGGNDFLITDSYCLNSKDFYLLKEKAKSLMVIEDTEHAKGFYPKNTKILNFTLNALKHYHHLSKDYQYYLGVGFYPVDARFIYDRPINTENKEVLITLGGSEQKTLKEIVKILENKNVNLHIISPYTPKNPPKNTHYYSPLNPLEFSSLMKSCACAISAAGQTLYELALSQTPSLILPIASNQIIQSKEFESLGIFKQTSLKTLAKDFENLQIQKNQAWAKNLVFGDKLEGALREFLEI” as the sequence, how does the “soluble on expression in E. coli” value read?
Answer: Its value is “not soluble”.

Question: For “MGSDKIHHHHHHMRAIFFNGDLQYTTDYPDPVRQPGEALIRPHLVGICNTDLEITRGYMNFRGVLGHEFVGTVVASDDPSWQGKRVVGEINAACRRCPTCLRGDVSHCPQRTTLGIYRRDGAMADLFTLPEACLHEVPASVSDEAAVFTEPLAAALEIVEQSHIRPTERVAVVGDGKLGAMIVQVLRLTGCELTLIGRHPERWDVYRQQGITCVRSTDLPGTLFDVVVDCTGNPSGLNIARQIIRPRGRLILKSTFAAETQLNLSMVVVDEIQLIGSRCGPFAPALRLLERGLIATTPLISARYPLAEGLQAFAAAPGQLKVLLSV”, which “soluble on expression in E. coli” value is on record?
Answer: The value was “not soluble”.

Question: Which “soluble on expression in E. coli” value does the source give for “MGSDKIHHHHHHMREKIDALTQNLNRTIVGKTEAIRLVLVALLGGGHALLEDVPGVGKTLLAKSLARSLDGTFQRLQCTPDLLPTDITGTNIWNPKSGEFSFMPGPVFANVVLADEINRATPRTQSALLEVMEEQQVTVDGVSRTVPHPFFVIATQNPVEYQGTFPLPEAQMDRFMLSLSLGYPGVDEELEMLQNLQHGIKVGDLQPCLTLAEVAELREICSQVKVETVLQQYILELVRSTRQDEEITLGVSPRGTVALHKATQALAFLLGRDYAIPDDVKFLAPHVLCHRLIARGGRSARSIVDRLLRSLPIP” here?
Answer: Its value is “not soluble”.

Question: Which “soluble on expression in E. coli” value does the source give for “MGSDKIHHHHHHMRGMMLGMLAETHIHSGAGRSEGFVDLPVAREAVTSYPVIAGSSLKGALRDAARERGMDESIFGDQDRAGDVLVSDARLLLLPVRSLTGSYRWVTCPHILERLSRDMRLCGISDGFEGASVERGKACCTDDLNQIFLEEREFQRSNGIDGALIDALKKMVPHKQTASRLERQLVIISDDDFGWFASYGLPVIARNKLDDNKKSKNLWYEEALAPDTLMYAMVFERKDGALGKVQSMFETKPYLQLGGNETVGMGWFAVKILEQGEGR” here?
Answer: The value was “not soluble”.

Question: With “MGSDKIHHHHHHMRGSAVARDLTDDKAMVHGALSMLARGGAVDQAYAPDAVAEIAHPYGTCTGADITRFYGDLHRALPDANWRPEIFFAGHNHPDERMEGPRVAAQVGSFGHWQGTFTQPLLGIEPTGGVVHLRMCEVHHLNAAGQIAQSWILPDFLDLMDQAGQFPLPPMNGARGLWPGPRGGNGVRMGPPDVAGGNASMAQVLDMHNALNTHVGADVSGLTMAHWDPNFMYYAAAGIGICRGVEGFRRNHQIPFREAVPDRYSKGHFVRIADGRFALTGGRLYATHTGTYLGIPATGRQVHIDVMDFYHFHDQGLICQNWLPFDILKTAHQMGVDLLPALPS” as the sequence, how does the “soluble on expression in E. coli” value read?
Answer: Its value is “not soluble”.

Question: For “MGSDKIHHHHHHMRIAILSQGPELYSTKRLVEAATLRGHEVKVINPLECYMNINMRQSSIHIGGEELPPFDAVIPRIGASITFYGSAVLRQFEMMGVYALNDSVGISRSRDKLRSMQLMSRRGIGLPITGFANKPSDIPDLIDMVGGAPLVIKLLEGTQGIGVVLAETRKAAESVIEAFMGLKANIMVQEYIKEANGADIRCFVLGDKVVAAMKRQAMPGEFRSNLHRGGTASLVKLTPEERSVAIRAAKTMGLNVAGVDLLRSNHGPLVMEVNSSPGLEGIEGATAKDVAGAIIEFVEKNALKTKKPTQA”, which “soluble on expression in E. coli” value is on record?
Answer: The value was “not soluble”.

Question: Which “soluble on expression in E. coli” value does the source give for “MGSDKIHHHHHHMRIHVLCDDSSQNGFESEHGFSVLVDSVLFDTGKSDVFLKNARKLGIDLPKDVLISHGHYDHAGGLLYLSGKRVWLRKEALDQKYSGERYAGADWNEVLYYNTGKFVIERITEIGKNMFLLGPANLRGKVPTGDFFVERNGERRKDLFEDEQTLVVRTKEGLVVITGCSHRGIDNILLDIAETFNERIKMVVGGFHLLKSSDDEIEKIVKAFNELGVETVVPCHCTGERAVDIFKREFLGKIMDCYAGLKLEVSD” here?
Answer: Its value is “soluble”.

— the DeepSol protein solubility set
